Laboratory results published in article PMC6367273.

What was measured:
[1] = target: LPHN1-S (FLAG-tagged splice variant of murine LPHN1 with a truncated intracellular tail) (mouse); test: immunostaining of cells or tissue; HEK-LPHN1-S, HEK-WT and HEK-Puro cells incubated with FITC-K37-mTCAP-1 (1:400) in medium with HEPES pH 7.4 and 0.1% BSA for 12 h at 4°C, washed, fixed, stained with Cy3-tagged FLAG antibody; confocal microscopy; green pixels (intensity 20-255) per cell
[2] = target: LPHN1-S (FLAG-tagged splice variant of murine LPHN1 with a truncated intracellular tail) (mouse)
[3] = target: LPHN1-S (FLAG-tagged splice variant of murine LPHN1 with a truncated intracellular tail) (mouse); remark: listed apart in the source

Row | Substance | green pixels per cell [1] [pixels/cell] | f-actin (Phalloidin red pixels per cell) in HEK-LPHN1-S cells treated with 100 nM mTCAP-1 for 60 min against vehicle; no significant change in HEK-WT cells [2] [%] | cell height of HEK-LPHN1-S cells treated with 100 nM mTCAP-1 for 60 min against vehicle; no significant change in HEK-WT cells [3] [%]
1 | FITC-tagged K37-mTCAP-1 (peptide) | 49.5 | – | –
2 | Mouse TCAP-1 (mTCAP-1), synthetic (peptide) | – | 343 | 39
